Assay results from paper PMC9405524, “Pre‐steady‐state kinetics and solvent isotope effects support the “billiard‐type” transport mechanism in Na ^+‐translocating pyrophosphatase” (Protein Science : A Publication of the Protein Society, 2022).

Substrate: O=P(O)(O)OP(=O)(O)O
Assay: PPi hydrolysis in inverted membrane vesicles, automatic Pi analyzer, two-site dimer equation
Type: biochemical, Thermotoga maritima
Settings: 40°C, pH 7.2, 0.1 M MOPS-KOH, 5 mM Mg2+, 10 mM NaCl, first (stronger) site of the dimer, concentration counted as Mg2PPi complex
Text: PPi hydrolysis in inverted membrane vesicles, automatic Pi analyzer, two-site dimer equation on Tm‐mPPase (Thermotoga maritima membrane pyrophosphatase)

B1: Tm‐mPPase (Thermotoga maritima membrane pyrophosphatase) (Thermotoga maritima MSB8) (protein)
chain: MYVAALFFLIPLVALGFAAANFAAVVRKPEGTERMKEISSYIRSGADSFLAHETKAIFKVAIVIAILLMIFTTWQTGVAFLLGAVMSASAGIVGMKMATRANVRVAEAARTTKKIGPALKVAYQGGSVMGLSVGGFALLGLVLVYLIFGKWMGQVDNLNIYTNWLGINFVPFAMTVSGYALGCSIIAMFDRVGGGVYTKAADMAADLVGKTELNLPEDDPRNPATIADNVGDNVGDVAGLGADLLESFVGAIVSSIILASYMFPIYVQKIGENLVHQVPKETIQALISYPIFFALVGLGCSMLGILYVIVKKPSDNPQRELNISLWTSALLTVVLTAFLTYFYLKDLQGLDVVGFRFGAISPWFSAIIGIFSGILIGFWAEYYTSYRYKPTQFLSKSSIEGTGMVISNGLSLGMKSVFPPTLTLVLGILFADYFAGLYGVAIAALGMLSFVATSVSVDSYGPIADNAGGISEMCELDPEVRKITDHLDAVGNTTAAIGKGFAIGSAIFAALSLFASYMFSQISPSDIGKPPSLVLLLNMLDARVIAGALLGAAITYYFSGYLISAVTKAAMKMVDEIRRQAREIPGLLEGKAKPDYNRCIEITSDNALKQMGYPAFIAILTPLVTGFLLGAEFVGGVLIGTVLSGAMLAILTANSGGAWDNAKKYLEAGNLEGYGKGSEPHKALVIGDTVGDPLKDTVGPSLDILIKIMSVVSVIAVSIFKHVHLF
notes: recombinant in E. coli C41(DE3), assayed in inverted membrane vesicles; homodimer, subunit mass 77 kDa
**Q.** For B1, which Km is on record?
**A.** 1.41 ± 0.04 µM
